The text below walks through data of PMC10643893 (2022).

As a reminder, the Kd is a measure of binding affinity in units of concentration. A low value points to higher affinity. Usually koff stands for the rate constant with which the complex falls apart.

Holding throughout (assay): SPR
In general terms: Surface plasmon resonance follows binding to a sensor surface in real time, without labels.

In assay [1] the target is T1, pneumolysin (Streptococcus pneumoniae, UniProt P0C2J9 1-471).
T1 chain: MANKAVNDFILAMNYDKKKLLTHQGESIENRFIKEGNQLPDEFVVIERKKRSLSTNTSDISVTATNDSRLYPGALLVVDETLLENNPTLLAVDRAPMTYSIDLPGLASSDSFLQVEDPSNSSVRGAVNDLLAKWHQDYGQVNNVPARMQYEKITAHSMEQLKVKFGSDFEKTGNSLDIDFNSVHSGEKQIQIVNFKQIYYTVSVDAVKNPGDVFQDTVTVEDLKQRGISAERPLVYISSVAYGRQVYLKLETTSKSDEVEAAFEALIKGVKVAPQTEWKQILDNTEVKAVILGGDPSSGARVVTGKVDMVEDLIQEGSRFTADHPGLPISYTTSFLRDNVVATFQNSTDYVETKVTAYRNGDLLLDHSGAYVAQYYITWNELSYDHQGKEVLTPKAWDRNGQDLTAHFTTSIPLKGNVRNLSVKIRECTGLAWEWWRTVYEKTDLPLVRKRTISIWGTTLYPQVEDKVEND

The target of assay [2] is T1, pneumolysin.
The target of assay [3] is T1, pneumolysin.

B1: plasma kallikrein (zymogen) (natural protein)
chain: not shown
In the case of B1, in assay [1], the Kd worked out at 328 nM. This molecule also displayed a Ka in assay [2] of 3.04e+06 M⁻¹. The same molecule showed a koff in assay [3] of 0.00942 s⁻¹.

B2: factor XII (zymogen) (natural protein)
chain: IPPWEAPKEHKYKAEEHTVVLTVTGEPCHFPFQYHRQLYHKCTHKGRPGPQPWCATTPNFDQDQRWGYCLEPKKVKDHCSKHSPCQKGGTCVNMPSGPHCLCPQHLTGNHCQKEKCFEPQLLRFFHKNEIWYRTEQAAVARCQCKGPDAHCQRLASQACRTNPCLHGGRCLEVEGHRLCHCPVGYTGAFCDVDTKASCYDGRGLSYRGLARTTLSGAPCQPWASEATYRNVTAEQARNWGLGGHAFCRNPDNDIRPWCFVLNRDRLSWEYCDLAQCQTPTQAAPPTPVSPRLHVPLMPAQPAPPKPQPTTRTPPQSQTPGALPAKREQPPSLTRNGPLSCGQRLRKSLSSMTRVVGGLVALRGAHPYIAALYWGHSFCAGSLIAPCWVLTAAHCLQDRPAPEDLTVVLGQERRNHSCEPCQTLAVRSYRLHEAFSPVSYQHDLALLRLQEDADGSCALLSPYVQPVCLPSGAARPSETTLCQVAGWGHQFEGAEEYASFLQEAQVPFLSLERCSAPDVHGSSILPGMLCAGFLEGGTDACQGDSGGPLVCEDQAAERRLTLQGIISWGSGCGDRNKPGVYTDVAYYLAWIREHTVS
For the molecule B2, in assay [1], the Kd was 24.9 nM. For the same molecule, the Ka in assay [2] was 4.41e+07 M⁻¹. Besides, the koff in assay [3] amounted to 0.00198 s⁻¹.

B3: high-molecular-weight kininogen (natural protein)
chain: QESQSEEIDCNDKDLFKAVDAALKKYNSQNQSNNQFVLYRITEATKTVGSDTFYSFKYEIKEGDCPVQSGKTWQDCEYKDAAKAATGECTATVGKRSSTKFSVATQTCQITPAEGPVVTAQYDCLGCVHPISTQSPDLEPILRHGIQYFNNNTQHSSLFMLNEVKRAQRQVVAGLNFRITYSIVQTNCSKENFLFLTPDCKSLWNGDTGECTDNAYIDIQLRIASFSQNCDIYPGKDFVQPPTKICVGCPRDIPTNSPELEETLTHTITKLNAENNATFYFKIDNVKKARVQVVAGKKYFIDFVARETTCSKESNEELTESCETKKLGQSLDCNAEVYVVPWEKKIYPTVNCQPLGMISLMKRPPGFSPFRSSRIGEIKEETTVSPPHTSMAPAQDEERDSGKEQGHTRRHDWGHEKQRKHNLGHGHKHERDQGHGHQRGHGLGHGHEQQHGLGHGHKFKLDDDLEHQGGHVLDHGHKHKHGHGHGKHKNKGKKNGKHNGWKTEHLASSSEDSTTPSAQTQEKTEGPTPIPSLAKPGVTVTFSDFQDSDLIATMMPPISPAPIQSDDDWIPDIQIDPNGLSFNPISDFPDTTSPKCPGRPWKSVSEINPTTQMKESYYFDLTDGLS
In turn, B3 displayed a Kd in assay [1] of 12600 nM. The same molecule showed a Ka in assay [2] of 573000 M⁻¹. The molecule further showed a koff in assay [3] of 0.00208 s⁻¹.
